Consider three molecules from publication PMC3785238 (Cell, 2013).

Non-standard residues stand in square brackets, D forms with d. No end group written: not given here. pT = C[C@@H](OP(=O)(O)O)[C@H](N)C(=O)O; pS = N[C@@H](COP(=O)(O)O)C(=O)O

The chains are these.
B1: mGluR5 peptide spanning the Homer/Pin1 binding site, bacterially expressed, phosphorylated at T1123 and S1126 (peptide)
chain: KELVAL[pT]PP[pS]PFRD

The target of assay [1] is B1.
The target of assay [2] is T1, Homer1c, full-length, recombinant (UniProt Q9Z214 1-366).
T1 sequence (looked up): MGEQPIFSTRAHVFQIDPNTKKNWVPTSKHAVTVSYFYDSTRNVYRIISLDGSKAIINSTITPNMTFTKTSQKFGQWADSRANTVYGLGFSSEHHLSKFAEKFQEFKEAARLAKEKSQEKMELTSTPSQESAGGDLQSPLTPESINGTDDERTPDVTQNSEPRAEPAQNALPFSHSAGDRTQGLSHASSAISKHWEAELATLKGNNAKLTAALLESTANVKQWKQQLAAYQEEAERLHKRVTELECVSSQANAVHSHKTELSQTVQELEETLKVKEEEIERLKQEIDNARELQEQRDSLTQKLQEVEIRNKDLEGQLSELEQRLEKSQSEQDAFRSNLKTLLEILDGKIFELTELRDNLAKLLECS
The experiment in a line: ITC.

Assay [3] addresses Homer1a, full length, recombinant. The experiment in a line: ITC + NMR titration.
For assay [4] the target is unchanged. The experiment in a line: ITC.

In assay [1], EKLPPGWEKRMSRSSGRVYYFNHITNASQWERPSG (domain or fragment, UniProt Q13526 5-39, looked up) [WW domain of Pin1] gave a Kd of 10700 ± 200 nM.
With KELVALTPP[pS]PFRD [mGluR5 peptide spanning the Homer/Pin1 binding site, bacterially expressed, phosphorylated at S1126], the Kd in assay [2] amounted to 1910 ± 190 nM. Also, in assay [3], the “Kd, calc cis” value was 670 nM and the “Kd, calc trans” value was 2190 nM. In addition, in assay [4], the dissociation constant Kd stood at 1560 ± 160 nM.
As to B1, in assay [3], the “Kd, calc cis” value was 160 nM and the “Kd, calc trans” value is 760 nM. Also, in assay [4], the dissociation constant (Kd) was determined as 470 ± 100 nM.
